Test results published in patent publication US20140017269A1 (CHILDREN S HOSPITAL MEDICAL CENTER, published 2014).

Biological target: the molecule itself
Experiment: method not given; self-association

B1: NoV P^--M2e protein (other)
chain: SRTKPFTVPILTVEEMSNSRFPIPLEKLYTGPSSAFVVQPQNGRCTTDGVLLGTTQLSAVNICTFRGDVTHIAGSHDYIMNLASQNWNNYDPTEEIPAPLGTPDFVGKIQGMLTQTTREDGSTRAHKATVSTGTVHFTPKLGSVQYTTSSLLTEVETPIRNEWGCRCNDSSDIDILQTGQNTKFTPVGVIQDGNNHQNEPQQWVLPNYSGRTGHNVHLAPAVAPTFPGEQLLFFRSTMPGCSGYPNMNLDCLLPQEWVQHFYQEAAPAQSDVALLRFVNPDTGRVLFECKLHKSGYVTVAHTGPHDLVIPPNGYFRFDSWVNQFYTLAPMGNGAGR
notes: also called NoV P^--M2e dimer
binding result: binds
